T1: rhIL-4R-Fc (ILR-H5253, Acro) (human, UniProt P24394 26-232)
T1 sequence: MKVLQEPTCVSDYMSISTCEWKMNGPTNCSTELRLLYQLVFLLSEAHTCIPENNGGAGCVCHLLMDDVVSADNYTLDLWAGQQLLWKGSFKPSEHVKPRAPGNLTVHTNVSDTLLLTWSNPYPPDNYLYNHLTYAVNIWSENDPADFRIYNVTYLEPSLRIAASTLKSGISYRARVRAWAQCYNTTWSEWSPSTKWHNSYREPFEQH

B1: 25G7-(scdsFv)-PE38KDEL (scFv)
scFv: EVQLVESGGGLVQPGGSLRLSCAASGFTFSDYGMHWVRQAPGKCLEWVAFISSGSSIIYYADIVKGRSTISRDNAKNTLYLQMNSLRAEDTAVYYCTRGNKRGFFDYWGQGTLVTVSSGGGGSGGGGSGGGGSEIVLTQSPATLSLSPGERATLSCRASSSVPYMYWYQQKPGQAPRLLIYLTSNLASGIPARFSGSGSGTDFTLTISSLEPEDFAVYYCQQWRAYPPMLTFGCGTKVEIKASGGPEEGGSLAALTAHQACHLPLETFTRHRQPRGWEQLEQCGYPVQRLVALYLAARLSWNQVDQVIRNALASPGSGGDLGEAIREQPEQARLALTLAAAESERFVRQGTGNDEAGAANGPADSGDALLERNYPTGAEFLGDGGDVSFSTRGTQNWTVERLLQAHRQLEERGYVFVGYHGTFLEAAQSIVFGGVRARSQDLDAIWRGFYIAGDPALAYGYAQDQEPDARGRIRNGALLRVYVPRSSLPGFYRTSLTLAAPEAAGEVERLIGHPLPLRLDAITGPEEEGGRLETILGWPLAERTVVIPSAIPTDPRNVGGDLDPSSIPDKEQAISALPDYASQPGKPPKDEL

Columns and labels:
[1] = target: human IL-4R overexpressed on glioblastoma cells (LN229-IL4R, U87-IL4R, U251-IL4R) (human) (UniProt P24394); test: flow cytometry, U87-IL4R cells, 20 ug/mL
[2] = target: human IL-4R overexpressed on glioblastoma cells (LN229-IL4R, U87-IL4R, U251-IL4R) (human) (UniProt P24394); test: flow cytometry, U251-IL4R cells, 6.666667 ug/mL
[3] = target: human IL-4R overexpressed on glioblastoma cells (LN229-IL4R, U87-IL4R, U251-IL4R) (human) (UniProt P24394); test: flow cytometry, U251-IL4R cells, 0.246914 ug/mL
[4] = target: human IL-4R overexpressed on glioblastoma cells (LN229-IL4R, U87-IL4R, U251-IL4R) (human) (UniProt P24394); test: flow cytometry, U251-IL4R cells, 0.082305 ug/mL
[5] = target: human IL-4R overexpressed on glioblastoma cells (LN229-IL4R, U87-IL4R, U251-IL4R) (human) (UniProt P24394); test: flow cytometry, U87-IL4R cells, 0.740741 ug/mL
[6] = target: human IL-4R overexpressed on glioblastoma cells (LN229-IL4R, U87-IL4R, U251-IL4R) (human) (UniProt P24394); test: flow cytometry, U251-IL4R cells, 0.740741 ug/mL
[7] = target: human IL-4R overexpressed on glioblastoma cells (LN229-IL4R, U87-IL4R, U251-IL4R) (human) (UniProt P24394); test: flow cytometry, U251-IL4R cells, 2.222222 ug/mL
[8] = target: human IL-4R overexpressed on glioblastoma cells (LN229-IL4R, U87-IL4R, U251-IL4R) (human) (UniProt P24394); test: flow cytometry, LN229-IL4R cells, 6.666667 ug/mL
[9] = target: human IL-4R overexpressed on glioblastoma cells (LN229-IL4R, U87-IL4R, U251-IL4R) (human) (UniProt P24394); test: flow cytometry, U251-IL4R cells, 0.027435 ug/mL
[10] = target: human IL-4R overexpressed on glioblastoma cells (LN229-IL4R, U87-IL4R, U251-IL4R) (human) (UniProt P24394); test: flow cytometry, U87-IL4R cells, 0.027435 ug/mL
[11] = target: human IL-4R overexpressed on glioblastoma cells (LN229-IL4R, U87-IL4R, U251-IL4R) (human) (UniProt P24394); test: flow cytometry, U87-IL4R cells, 0.082305 ug/mL
[12] = target: human IL-4R overexpressed on glioblastoma cells (LN229-IL4R, U87-IL4R, U251-IL4R) (human) (UniProt P24394); test: flow cytometry, U87-IL4R cells, 0.246914 ug/mL
[13] = target: human IL-4R overexpressed on glioblastoma cells (LN229-IL4R, U87-IL4R, U251-IL4R) (human) (UniProt P24394); test: flow cytometry, LN229-IL4R cells, 0.082305 ug/mL
[14] = target: human IL-4R overexpressed on glioblastoma cells (LN229-IL4R, U87-IL4R, U251-IL4R) (human) (UniProt P24394); test: flow cytometry, U251-IL4R cells, 20 ug/mL
[15] = target: human IL-4R overexpressed on glioblastoma cells (LN229-IL4R, U87-IL4R, U251-IL4R) (human) (UniProt P24394); test: flow cytometry, LN229-IL4R cells, 0.246914 ug/mL
[16] = target: human IL-4R overexpressed on glioblastoma cells (LN229-IL4R, U87-IL4R, U251-IL4R) (human) (UniProt P24394); test: flow cytometry, U87-IL4R cells, 2.222222 ug/mL
[17] = target: human IL-4R overexpressed on glioblastoma cells (LN229-IL4R, U87-IL4R, U251-IL4R) (human) (UniProt P24394); test: flow cytometry, LN229-IL4R cells, 2.222222 ug/mL
[18] = target: human IL-4R overexpressed on glioblastoma cells (LN229-IL4R, U87-IL4R, U251-IL4R) (human) (UniProt P24394); test: flow cytometry, LN229-IL4R cells, 20 ug/mL
[19] = target: human IL-4R overexpressed on glioblastoma cells (LN229-IL4R, U87-IL4R, U251-IL4R) (human) (UniProt P24394); test: flow cytometry, U87-IL4R cells, 6.666667 ug/mL
[20] = target: human IL-4R overexpressed on glioblastoma cells (LN229-IL4R, U87-IL4R, U251-IL4R) (human) (UniProt P24394); test: flow cytometry, LN229-IL4R cells, 0.027435 ug/mL
[21] = target: human IL-4R overexpressed on glioblastoma cells (LN229-IL4R, U87-IL4R, U251-IL4R) (human) (UniProt P24394); test: flow cytometry, LN229-IL4R cells, 0.740741 ug/mL
[22] = target: rhIL-4R-Fc (ILR-H5253, Acro) (human) (UniProt P24394); test: SPR Biacore 8K, rhIL-4R-Fc captured by anti-human IgG on CM5, immunotoxin as analyte
[23] = target: human IL-4R overexpressed on glioblastoma cells (LN229-IL4R, U87-IL4R, U251-IL4R) (human) (UniProt P24394); test: cell-based or functional assay
[24] = target: T1, rhIL-4R-Fc (ILR-H5253, Acro)

| Molecule | Mean MFI [1] [MFI] | Mean MFI [2] [MFI] | Mean MFI [3] [MFI] | Mean MFI [4] [MFI] | Mean MFI [5] [MFI] | Mean MFI [6] [MFI] | Mean MFI [7] [MFI] | Mean MFI [8] [MFI] | Mean MFI [9] [MFI] | Mean MFI [10] [MFI] | Mean MFI [11] [MFI] | Mean MFI [12] [MFI] | Mean MFI [13] [MFI] | Mean MFI [14] [MFI] | Mean MFI [15] [MFI] | Mean MFI [16] [MFI] | Mean MFI [17] [MFI] | Mean MFI [18] [MFI] | Mean MFI [19] [MFI] | Mean MFI [20] [MFI] | also measured |
| --- | --- | --- | --- | --- | --- | --- | --- | --- | --- | --- | --- | --- | --- | --- | --- | --- | --- | --- | --- | --- | --- |
| hIgG1 isotype control (antibody) | 318 | 288 | 287 | 274 | 339 | 284 | 282 | 244 | 263 | 588 | 394 | 322 | 318 | 275 | 300 | 334 | 361 | 231 | 306 | 352 | Mean MFI [21]: 286 MFI |
| MDNA55 (ligand) | 32700 | 17500 | 8130 | 5860 | 21600 | 10700 | 13700 | 21100 | 3180 | 9120 | 12000 | 17100 | 8310 | 22600 | 12400 | 25300 | 19400 | 24300 | 29700 | 4470 | Kd [22]: 439 pM; koff [22]: 0.0029 s⁻¹; kon [22]: 6.62e+06 M⁻¹ s⁻¹; in vitro killing (CTG cell viability), LN229-IL4R cells [23]: 80%; Mean MFI [21]: 16200 MFI |
| B1 |  |  |  |  |  |  |  |  |  |  |  |  |  |  |  |  |  |  |  |  | Kd [24]: 101 pM; koff [24]: 0.000279 s⁻¹; kon [24]: 2.77e+06 M⁻¹ s⁻¹ |

Source: patent US20240075158A1 (JIANGSU HENGRUI PHARMACEUTICAL, published 2024)
